From the supplement of paper PMC10065799, “High-throughput profiling of sequence recognition by tyrosine kinases and SH2 domains using bacterial peptide display” (eLife, 2023)

How the values were obtained:
AncSZ = assay: phosphorylation enrichment, bacterial display (enrichment ratio); higher = better substrate or ligand; peptides without Tyr show the background
EPHB1 = EPHB1 (UniProt P54762); assay: as above
EPHB2 = EPHB2 (UniProt P29323); assay: as above
FGFR1 = FGFR1 (UniProt P11362); assay: as above
Sequence of FGFR1 (P11362 whole entry, looked up): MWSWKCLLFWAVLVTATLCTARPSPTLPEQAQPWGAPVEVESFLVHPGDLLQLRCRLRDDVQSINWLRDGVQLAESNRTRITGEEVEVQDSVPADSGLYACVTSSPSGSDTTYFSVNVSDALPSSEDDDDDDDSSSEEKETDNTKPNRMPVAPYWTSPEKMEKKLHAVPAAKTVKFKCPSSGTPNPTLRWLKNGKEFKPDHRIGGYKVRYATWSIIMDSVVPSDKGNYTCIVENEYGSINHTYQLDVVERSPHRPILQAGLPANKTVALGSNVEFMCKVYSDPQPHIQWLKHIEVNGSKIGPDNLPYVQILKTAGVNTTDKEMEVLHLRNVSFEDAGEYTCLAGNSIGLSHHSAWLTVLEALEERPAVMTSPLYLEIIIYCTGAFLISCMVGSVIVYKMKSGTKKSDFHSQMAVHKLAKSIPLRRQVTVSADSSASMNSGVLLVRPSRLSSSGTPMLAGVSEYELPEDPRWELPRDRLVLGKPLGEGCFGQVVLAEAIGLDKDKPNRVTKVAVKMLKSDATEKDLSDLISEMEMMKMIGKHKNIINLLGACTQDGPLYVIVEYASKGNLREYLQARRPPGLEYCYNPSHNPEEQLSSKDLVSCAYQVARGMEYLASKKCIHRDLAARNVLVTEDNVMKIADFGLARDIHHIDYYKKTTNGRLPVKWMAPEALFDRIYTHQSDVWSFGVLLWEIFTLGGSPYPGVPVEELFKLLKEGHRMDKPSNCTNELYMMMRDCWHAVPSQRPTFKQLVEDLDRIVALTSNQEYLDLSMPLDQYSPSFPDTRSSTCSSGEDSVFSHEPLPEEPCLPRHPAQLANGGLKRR

FGFR3 = FGFR3 (UniProt P22607); assay: as above
Fer (mouse) = assay: as above
Fes = Fes (UniProt P07332); assay: as above
Sequence of Fes (P07332 whole entry, looked up): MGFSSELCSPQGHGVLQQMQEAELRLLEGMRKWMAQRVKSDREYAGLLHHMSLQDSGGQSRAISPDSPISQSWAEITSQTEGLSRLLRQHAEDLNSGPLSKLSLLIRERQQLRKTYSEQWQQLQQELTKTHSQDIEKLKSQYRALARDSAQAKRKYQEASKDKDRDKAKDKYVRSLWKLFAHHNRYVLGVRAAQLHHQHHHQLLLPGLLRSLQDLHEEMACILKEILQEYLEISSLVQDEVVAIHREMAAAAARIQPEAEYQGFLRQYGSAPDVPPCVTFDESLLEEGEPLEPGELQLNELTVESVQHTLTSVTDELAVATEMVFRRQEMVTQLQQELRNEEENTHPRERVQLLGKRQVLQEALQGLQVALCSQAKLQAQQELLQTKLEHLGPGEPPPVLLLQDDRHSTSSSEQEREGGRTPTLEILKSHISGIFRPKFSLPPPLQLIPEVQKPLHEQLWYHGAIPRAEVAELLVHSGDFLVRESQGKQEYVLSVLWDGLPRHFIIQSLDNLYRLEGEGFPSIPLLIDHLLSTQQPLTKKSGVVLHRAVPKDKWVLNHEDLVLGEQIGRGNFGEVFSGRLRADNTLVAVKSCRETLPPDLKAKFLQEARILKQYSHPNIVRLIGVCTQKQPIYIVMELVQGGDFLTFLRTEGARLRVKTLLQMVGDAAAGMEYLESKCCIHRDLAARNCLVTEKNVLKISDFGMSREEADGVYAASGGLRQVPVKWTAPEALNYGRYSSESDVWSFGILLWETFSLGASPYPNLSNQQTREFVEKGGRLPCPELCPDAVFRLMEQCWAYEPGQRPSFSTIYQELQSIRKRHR

Fyn = Fyn (UniProt P06241); assay: as above
Hck = Hck (UniProt P08631); assay: as above
Jak2 = Jak2 (UniProt O60674); assay: as above
MERTK = MERTK (UniProt Q12866); assay: as above
Sequence of MERTK (Q12866 whole entry, looked up): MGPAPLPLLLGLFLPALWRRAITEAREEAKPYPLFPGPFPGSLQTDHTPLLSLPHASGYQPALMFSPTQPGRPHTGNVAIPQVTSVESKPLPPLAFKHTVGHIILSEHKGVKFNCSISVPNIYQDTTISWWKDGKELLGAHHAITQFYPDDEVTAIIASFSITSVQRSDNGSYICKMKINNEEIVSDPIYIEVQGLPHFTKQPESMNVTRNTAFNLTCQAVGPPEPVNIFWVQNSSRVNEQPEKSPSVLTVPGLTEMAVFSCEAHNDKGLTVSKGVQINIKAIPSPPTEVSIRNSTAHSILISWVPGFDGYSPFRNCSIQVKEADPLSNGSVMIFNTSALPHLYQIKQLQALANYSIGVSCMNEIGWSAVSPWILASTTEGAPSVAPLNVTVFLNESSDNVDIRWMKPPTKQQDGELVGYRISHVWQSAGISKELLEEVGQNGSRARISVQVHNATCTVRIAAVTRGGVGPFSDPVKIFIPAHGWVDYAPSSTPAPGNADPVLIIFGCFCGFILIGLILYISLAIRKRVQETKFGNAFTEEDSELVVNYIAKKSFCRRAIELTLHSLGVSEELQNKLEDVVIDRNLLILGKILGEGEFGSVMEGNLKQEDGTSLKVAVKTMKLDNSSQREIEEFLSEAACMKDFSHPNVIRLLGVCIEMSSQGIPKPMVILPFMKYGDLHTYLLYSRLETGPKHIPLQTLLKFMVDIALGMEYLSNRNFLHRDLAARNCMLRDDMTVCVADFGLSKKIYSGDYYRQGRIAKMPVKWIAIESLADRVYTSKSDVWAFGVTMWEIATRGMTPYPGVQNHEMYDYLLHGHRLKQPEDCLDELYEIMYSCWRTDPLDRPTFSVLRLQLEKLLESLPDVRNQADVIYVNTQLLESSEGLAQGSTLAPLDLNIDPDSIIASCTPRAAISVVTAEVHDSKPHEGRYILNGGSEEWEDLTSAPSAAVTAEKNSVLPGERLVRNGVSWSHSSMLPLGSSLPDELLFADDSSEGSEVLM

c-Abl (mouse) = assay: as above
c-Src = assay: as above
Grb2 SH2 = Grb2 SH2 (UniProt P62993); assay: SH2 binding enrichment of the phosphorylated peptide, bacterial display (enrichment ratio); higher = better substrate or ligand; peptides without Tyr show the background
SHP2-C SH2 = assay: as above
c-Src SH2 = assay: as above
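For SH2 binding enrichment of the phosphorylated peptide, bacterial display in this document: peptide library displayed on the E. coli surface as eCPX fusions, selected cells deep-sequenced, score is each peptide's frequency after selection divided by its frequency in the input.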
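For phosphorylation enrichment, bacterial display in this document: 11-residue human phosphosite peptides and single-mutation variants displayed on the E. coli surface, counted by deep sequencing, each peptide's frequency after selection divided by its frequency in the unselected input library; frequency after pTyr selection over input frequency; kinase dosed for 20-30% of maximal phosphorylation in three min.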

Sequence of EPHB2 (P29323 whole entry, looked up): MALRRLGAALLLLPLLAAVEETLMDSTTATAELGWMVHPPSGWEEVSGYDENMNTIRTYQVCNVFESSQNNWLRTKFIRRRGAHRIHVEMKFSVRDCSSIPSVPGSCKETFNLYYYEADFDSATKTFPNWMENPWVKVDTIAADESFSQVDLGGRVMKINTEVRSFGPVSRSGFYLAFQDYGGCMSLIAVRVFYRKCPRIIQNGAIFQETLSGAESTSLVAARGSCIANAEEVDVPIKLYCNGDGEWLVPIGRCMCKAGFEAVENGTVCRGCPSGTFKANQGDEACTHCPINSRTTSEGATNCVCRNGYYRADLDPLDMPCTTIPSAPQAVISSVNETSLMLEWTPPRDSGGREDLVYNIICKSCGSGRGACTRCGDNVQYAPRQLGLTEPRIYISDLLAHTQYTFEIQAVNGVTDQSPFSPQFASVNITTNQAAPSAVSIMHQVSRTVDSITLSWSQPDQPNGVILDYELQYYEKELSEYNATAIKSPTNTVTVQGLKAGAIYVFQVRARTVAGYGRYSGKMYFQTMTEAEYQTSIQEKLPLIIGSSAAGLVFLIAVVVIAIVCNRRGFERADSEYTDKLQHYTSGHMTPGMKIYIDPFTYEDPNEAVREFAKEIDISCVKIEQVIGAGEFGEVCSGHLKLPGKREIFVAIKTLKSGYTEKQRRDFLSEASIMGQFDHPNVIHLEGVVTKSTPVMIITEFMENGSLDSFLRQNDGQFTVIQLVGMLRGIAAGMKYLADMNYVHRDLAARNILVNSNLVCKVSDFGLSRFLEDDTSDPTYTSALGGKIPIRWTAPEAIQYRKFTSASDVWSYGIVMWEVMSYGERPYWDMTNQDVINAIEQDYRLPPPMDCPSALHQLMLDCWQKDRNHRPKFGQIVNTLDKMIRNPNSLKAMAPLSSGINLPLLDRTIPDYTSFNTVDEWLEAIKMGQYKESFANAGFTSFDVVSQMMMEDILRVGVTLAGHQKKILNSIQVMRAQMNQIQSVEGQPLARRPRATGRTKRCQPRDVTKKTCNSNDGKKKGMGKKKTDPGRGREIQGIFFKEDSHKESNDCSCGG
Sequence of EPHB1 (P54762 whole entry, looked up): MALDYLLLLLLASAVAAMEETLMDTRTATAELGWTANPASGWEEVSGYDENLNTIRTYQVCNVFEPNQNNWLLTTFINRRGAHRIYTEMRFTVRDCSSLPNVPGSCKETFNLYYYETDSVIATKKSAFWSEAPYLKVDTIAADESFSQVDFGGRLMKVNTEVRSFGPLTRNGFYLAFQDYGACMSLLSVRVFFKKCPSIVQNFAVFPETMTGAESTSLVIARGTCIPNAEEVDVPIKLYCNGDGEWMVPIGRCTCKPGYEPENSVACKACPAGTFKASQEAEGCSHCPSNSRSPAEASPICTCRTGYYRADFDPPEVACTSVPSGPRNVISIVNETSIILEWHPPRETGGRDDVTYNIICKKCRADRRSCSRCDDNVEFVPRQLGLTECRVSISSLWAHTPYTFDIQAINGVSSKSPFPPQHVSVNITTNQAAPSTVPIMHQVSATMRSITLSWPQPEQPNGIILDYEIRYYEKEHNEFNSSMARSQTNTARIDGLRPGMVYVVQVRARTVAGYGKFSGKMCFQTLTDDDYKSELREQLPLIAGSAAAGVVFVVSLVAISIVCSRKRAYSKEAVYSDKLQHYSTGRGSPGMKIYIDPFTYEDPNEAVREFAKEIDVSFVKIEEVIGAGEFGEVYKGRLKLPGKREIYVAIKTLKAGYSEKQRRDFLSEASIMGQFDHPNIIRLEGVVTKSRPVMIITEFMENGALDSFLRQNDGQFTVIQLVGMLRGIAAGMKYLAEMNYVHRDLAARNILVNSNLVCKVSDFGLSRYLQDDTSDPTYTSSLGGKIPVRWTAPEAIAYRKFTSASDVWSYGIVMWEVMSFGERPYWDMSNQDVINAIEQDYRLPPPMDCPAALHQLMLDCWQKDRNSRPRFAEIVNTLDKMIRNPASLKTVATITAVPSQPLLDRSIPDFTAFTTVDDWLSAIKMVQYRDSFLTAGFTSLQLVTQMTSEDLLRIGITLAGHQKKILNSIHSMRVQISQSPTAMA

| SH2 binding enrichment (Grb2 SH2) | SH2 binding enrichment (SHP2-C SH2) | SH2 binding enrichment (c-Src SH2) | Sequence | phosphorylation enrichment (AncSZ) | phosphorylation enrichment (EPHB1) | phosphorylation enrichment (EPHB2) | phosphorylation enrichment (FGFR1) | phosphorylation enrichment (FGFR3) | phosphorylation enrichment (Fer (mouse)) | phosphorylation enrichment (Fes) | phosphorylation enrichment (Fyn) | phosphorylation enrichment (Hck) | phosphorylation enrichment (Jak2) | phosphorylation enrichment (MERTK) | phosphorylation enrichment (c-Abl (mouse)) | phosphorylation enrichment (c-Src) |
| --- | --- | --- | --- | --- | --- | --- | --- | --- | --- | --- | --- | --- | --- | --- | --- | --- |
| 1.3 | 1.19 | 1.08 | KHGGNYVPAPK [OSCP1_Y237] | 0.7 | 0.407 | 0.304 | 0.512 | 0.604 | 0.456 | 1.05 | 0.359 | 0.529 | 0.692 | 0.439 | 0.822 | 0.491 |
| 0.861 | 0.84 | 0.515 | TIQIMFGCDVG [HLA-A_Y123_Y123F] | 1.28 | 0.905 | 0.801 | 0.645 | 1.14 | 0.749 | 1.86 | 0.545 | 0.619 | 1.42 | 0.503 | 1.01 | 0.548 |
| 0.798 | 0.66 | 0.457 | FLQTDDTSQVS [FRMPD1_Y846_Y846D] | 1.05 | 0.632 | 0.648 | 0.445 | 0.645 | 0.49 | 1.12 | 0.481 | 0.587 | 0.99 | 0.622 | 1.07 | 0.476 |
| 0.729 | 0.739 | 0.456 | LVSCTYQLATG [FGFR2_Y608_R612T] | 1.41 | 0.717 | 0.668 | 0.559 | 0.764 | 0.615 | 1.3 | 0.596 | 0.631 | 1.05 | 0.546 | 0.83 | 0.952 |
| 0.72 | 0.713 | 0.5 | DLDATYRPMFS [JUP_Y701_M697L_YF] | 0.722 | 0.636 | 0.557 | 0.491 | 0.557 | 0.489 | 0.85 | 0.522 | 0.686 | 0.673 | 0.33 | 0.662 | 0.542 |
| 1.21 | 0.837 | 0.922 | CTTIHDNYMCN [TP53_Y234_Y234D] | 0.817 | 0.521 | 0.556 | 0.541 | 0.539 | 0.54 | 1 | 0.435 | 0.546 | 0.799 | 0.507 | 0.551 | 0.44 |
| 0.888 | 0.63 | 0.489 | VGIMLYGVDSR [PKD1_Y3143] | 1.12 | 0.575 | 0.626 | 0.592 | 0.792 | 0.634 | 1.19 | 0.572 | 0.61 | 1.05 | 0.383 | 0.77 | 0.435 |
| 0.852 | 0.594 | 0.365 | PLDGEYFTLHI [TP53_Y327_Q331H] | 2.49 | 0.808 | 0.97 | 5.77 | 4.7 | 0.816 | 1.68 | 2.35 | 1.51 | 4.23 | 0.752 | 1.93 | 2.97 |
| 0.784 | 0.371 | 0.568 | YNDSTYNQQLI [ZPLD1_Y198] | 0.801 | 0.521 | 0.465 | 0.495 | 0.471 | 0.491 | 0.738 | 0.479 | 0.506 | 0.612 | 0.435 | 0.533 | 0.51 |
| 0.969 | 0.732 | 0.543 | GPIFRYDSGGA [CYP11B1_Y81_L83S] | 0.82 | 0.487 | 0.418 | 0.505 | 0.554 | 0.402 | 0.802 | 0.478 | 0.43 | 0.69 | 0.42 | 0.576 | 0.475 |
| 0.778 | 0.676 | 0.475 | LARDMCDKEFF [MET_Y1230_Y1230C_YF] | 1.79 | 0.61 | 0.816 | 0.492 | 1.06 | 0.738 | 2.12 | 0.513 | 0.653 | 1.34 | 0.697 | 1.42 | 0.715 |
| 0.92 | 1.19 | 2.12 | IYRAAYFGVYD [SLC25A4_Y191] | 1.15 | 1.2 | 1.33 | 0.554 | 0.771 | 0.937 | 1.21 | 5.53 | 5.56 | 0.982 | 1.26 | 0.955 | 4.49 |
| 1.04 | 0.797 | 0.521 | DRLASYLDKVP [KRT14_Y129_R134P] | 0.802 | 0.537 | 0.472 | 0.456 | 0.689 | 0.499 | 0.912 | 0.481 | 0.5 | 0.883 | 0.495 | 0.621 | 0.493 |
| 0.773 | 0.644 | 0.525 | TNFCLYLRSLE [MTM1_Y71_R69C_YF] | 1.62 | 0.895 | 0.759 | 0.512 | 0.995 | 0.847 | 1.69 | 0.594 | 0.567 | 1.7 | 0.492 | 1.27 | 0.612 |
| 0.851 | 0.63 | 0.466 | SLNAVYPRAGR [OAS3_Y376_S381R] | 0.763 | 0.354 | 0.414 | 0.415 | 0.445 | 0.384 | 0.692 | 0.471 | 0.405 | 0.655 | 0.409 | 0.488 | 0.525 |

| Sequence | SH2 binding enrichment (Grb2 SH2) | SH2 binding enrichment (SHP2-C SH2) | SH2 binding enrichment (c-Src SH2) | phosphorylation enrichment (AncSZ) | phosphorylation enrichment (EPHB1) | phosphorylation enrichment (EPHB2) | phosphorylation enrichment (FGFR1) | phosphorylation enrichment (FGFR3) | phosphorylation enrichment (Fer (mouse)) | phosphorylation enrichment (Fes) | phosphorylation enrichment (Fyn) | phosphorylation enrichment (Hck) | phosphorylation enrichment (Jak2) | phosphorylation enrichment (MERTK) | phosphorylation enrichment (c-Abl (mouse)) | phosphorylation enrichment (c-Src) |
| --- | --- | --- | --- | --- | --- | --- | --- | --- | --- | --- | --- | --- | --- | --- | --- | --- |
| MRALTYCDLHK [KCNH2_Y827_V822M] | 0.703 | 0.708 | 0.626 | 0.853 | 0.73 | 0.523 | 0.509 | 0.536 | 0.507 | 1.09 | 0.407 | 0.507 | 0.771 | 0.365 | 0.626 | 0.37 |
